Measurements reported in patent US20080181886A1, “Polypeptides That Bind Baff And/Or April” (Genentech, Inc., priority 2004, published 2008).

Assays:
human BAFF (human) [1] = target: human BAFF (human) (UniProt Q9Y275); experiment: shotgun scan, phage display
Murine APRIL (mouse) [2] = target: Murine APRIL (mouse) (UniProt Q9D777); experiment: shotgun scan, phage display
Murine APRIL (mouse) [3] = target: Murine APRIL (mouse) (UniProt Q9D777); experiment: NNS library, phage display
human BAFF (human) [4] = target: human BAFF (human) (UniProt Q9Y275); experiment: NNS library, phage display

Chain of human BAFF (human) (Q9Y275 82-285 limits assumed): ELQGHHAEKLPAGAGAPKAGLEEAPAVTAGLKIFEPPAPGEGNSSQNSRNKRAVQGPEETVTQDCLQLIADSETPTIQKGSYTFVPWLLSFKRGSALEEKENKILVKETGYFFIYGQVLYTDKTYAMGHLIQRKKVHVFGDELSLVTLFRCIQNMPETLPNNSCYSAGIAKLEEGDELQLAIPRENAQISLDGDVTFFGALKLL
Chain of Murine APRIL (mouse) (Q9D777 105-241 limits assumed): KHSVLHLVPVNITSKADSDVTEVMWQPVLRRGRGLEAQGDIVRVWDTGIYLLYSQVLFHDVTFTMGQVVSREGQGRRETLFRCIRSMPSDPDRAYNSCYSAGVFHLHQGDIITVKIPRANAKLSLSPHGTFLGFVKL

Binder | F (BAFF) (human BAFF (human) [1]) | F (APRIL) (Murine APRIL (mouse) [2]) | F' APRIL (Murine APRIL (mouse) [3]) | F' BAFF (human BAFF (human) [4])
SLSCRKEQGKFYDHLLRDCISCASICGPHPKQCAYFCENKLR (receptor) [TACI_d2 Q95P] | > 54 | – | – | –
SLSCRKEQGKFYDHLLRDCISCASICGQDPKQCAYFCENKLR (receptor) [TACI_d2 H96D] | > 29 | – | – | –
SLSCRKEQGKFYDHLLRDCISCASICGQPPKQCAYFCENKLR (receptor) [TACI_d2 H96P] | 20 | 48 | – | –
SLSCRKEQGKFDDHLLRDCISCASICGQHPKQCAYFCENKLR (receptor) [TACI_d2 Y79D] | > 9.5 | > 8.2 | 0 | 0
SLSCRKEQGKFYDHLLGDCISCASICGQHPKQCAYFCENKLR (receptor) [TACI_d2 R84G] | 13 | – | – | 0
SLSCRKEQGKFYDHLLPDCISCASICGQHPKQCAYFCENKLR (receptor) [TACI_d2 R84P] | > 52 | – | – | 0
SLSCRKEQGKFSDHLLRDCISCASICGQHPKQCAYFCENKLR (receptor) [TACI_d2 Y79S] | > 36 | – | – | 0
SLSCRKEQGKFYDHLPRDCISCASICGQHPKQCAYFCENKLR (receptor) [TACI_d2 L83P] | 15 | – | – | –
